{
  "source": "the nanobody polyreactivity screen of Harvey et al. (2022)",
  "data": [
    {"assay": "yeast display, Sf9 membrane polyspecificity reagent, FACS + sequencing; frameworks hold sequencing errors", "in_short": "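Synthetic nanobody libraries on Saccharomyces cerevisiae BJ5465 were galactose-induced for 36–48 hours, stained 1 hour at 4 °C with 10% biotinylated, detergent-solubilized Sf9 membrane reagent and enriched on streptavidin microbeads. FACS then separated cells into low and high (top ~1%) gates by anti-HA (expression) and streptavidin (reagent binding) fluorescence. Genes were colony-PCR amplified, MiSeq 2 × 250 sequenced and CDR-length filtered. A clone's polyreactivity label is that of its gate of origin.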", "values": [
      {"sequence": "QVQLVESGGGLVQAGGSLRLSCAASGRIFGTNAMGWYRQAPGKERELVATITRGGGNTYYADSVKGRFTISRDNAKNTVYLQMNSLKPEDTAVYYCAAKFNRFAWYSHYDYWGQGTLVTVSS", "polyreactivity (PSR sort gate)": "low polyreactivity"},
      {"sequence": "QVQLVESGGGLVQAGGSLRLSCAASGRIFGTNAMGWYRQAPGTEMELDADITSGGSTNYADSVKGRFTISRDNAKNTVYLQMNSLKPEDTAVYYCAADVIGDLRWYREEYWGQGTQVTVSS", "polyreactivity (PSR sort gate)": "low polyreactivity"},
      {"sequence": "QVQLVESGGGLVQAGGSLRLSCAASGRIFGTNTMGWYRQAPGKERELVAGISSSGDSTYYADSVKGRFTISRDNAKNTVYLQMNSLKPEDTAVYYCAARKGEFWFPQGGYNYWGQGTQVTVSS", "polyreactivity (PSR sort gate)": "low polyreactivity"},
      {"sequence": "QVQLVESGGGLVQAGGSLRLSCAASGRIFGTYAMGWYRQAPGKERELVAAITQSGGRTYYADSVKGRFTISRDNAKNTVYLQMNSLKPEDTAVYYCAADSGKRRYGYYYWGQGTQVTVSS", "polyreactivity (PSR sort gate)": "high polyreactivity"},
      {"sequence": "QVQLVESGGGLVQAGGSLRLSCAASGRIFGTYAMGWYRQAPGKERELVARITRIGTRTYYADSVKGRFTISRDNAKNTVYLQMNSLKPEDTAVDYCAAGHYSYWVNTVKRYNTGYDYWGQGTQVTVSS", "polyreactivity (PSR sort gate)": "high polyreactivity"},
      {"sequence": "QVQLVESGGGLVQAGGSLRLSCAASGRIFGTYAMGWYRQAPGKERELVATISYSSGRTYYADSVKGRFTISRDNAKNTVYFQMNSLKPEDTAVYYCARRRRSGSRQYYYWGQGTQVTVSS", "polyreactivity (PSR sort gate)": "high polyreactivity"},
      {"sequence": "QVQLVESGGGLVQAGGSLRLSCAASGRIFGTYGMGWYRQAPGKERELVAAINWRGGSTYYADSVKGRFTISRDNAKNTVYLQMNSLKPEDTAVYYCNARLYRNRLGYWGQGTQVTVSS", "polyreactivity (PSR sort gate)": "high polyreactivity"},
      {"sequence": "QVQLVESGGGLVQAGGSLRLSCAASGRIFGTYVMGWYRPAPGKERELVARITGGGSTNYADSVKGRFTISRDNAKNTVYLEMNSLKPEDTAVYYCARDYGPYLSPEKPAPMDYWGQGTQVTVSS", "polyreactivity (PSR sort gate)": "low polyreactivity"},
      {"sequence": "QVQLVESGGGLVQAGGSLRLSCAASGRIFGVNAMGWYRQAPGKERELVAAIRYRDGSTYYADSVKGRFIISRDNAKNTVYLQMNSLKPEDTAVYYCNALHQRFYAQPGDYWGQGTQVTVSS", "polyreactivity (PSR sort gate)": "high polyreactivity"},
      {"sequence": "QVQLVESGGGLVQAGGSLRLSCAASGRIFGVNAMGWYRQAPGKERELVAAISVSGDSTYYADSVKGRFTISRDNAKNTVYLQMNSLKPEDTAVYYCNAGYTFVPADLTDEYYWGQGTQVTVSS", "polyreactivity (PSR sort gate)": "low polyreactivity"},
      {"sequence": "QVQLVESGGGLVQAGGSLRLSCAASGRIFGVNAMGWYRQAPGKERELVAVISSGGSTYYADSVKGRFTISRDNAKNTVYLQMNSLKPEDTAVYYCNAVVGRWFPYNLSDYWGQGTQVTVSS", "polyreactivity (PSR sort gate)": "low polyreactivity"},
      {"sequence": "QVQLVESGGGLVQAGGSLRLSCAASGRIFGVNAMGWYRQEPGKERELVAAISAGGGNTYYADSVKGRFTISRDNAKNTVYLQMNSLKPEDTAVYYCNVHRSLRMDYWGQGTQVTVSS", "polyreactivity (PSR sort gate)": "high polyreactivity"},
      {"sequence": "QVQLVESGGGLVQAGGSLRLSCAASGRIFGVYAMGCYRQATGKERELVATNTSGGSTSYADSVKGRFTISRDNAKNPVYLQMNSLKPEDTAVYYCNAPYSFFWQQMNYWGQGTQETVSS", "polyreactivity (PSR sort gate)": "low polyreactivity"},
      {"sequence": "QVQLVESGGGLVQAGGSLRLSCAASGRIFGVYAMGWSRQAPGKERELGAGITDRGGRTYYADSVKGRFTISRDNAKNTVYLQMNSLKPEDTAVYYCNAGSLHRRYYYEGDYWGQGTQVTVSS", "polyreactivity (PSR sort gate)": "high polyreactivity"},
      {"sequence": "QVQLVESGGGLVQAGGSLRLSCAASGRIFGVYAMGWYRQAPGKERELVAAISEGGGSTNYADSVKGRFTISRDNAKNTVYLQMNSLKPEDTAGYYCAATYRTGVRRYYSWGQGTQVTVSS", "polyreactivity (PSR sort gate)": "low polyreactivity"},
      {"sequence": "QVQLVESGGGLVQAGGSLRLSCAASGRIFGVYAMGWYRQAPGKERELVAAISSTGGSTYYADSVKGRFTISRDNAKNTVYLQMNSLKPEDTAVYYCEYDYWGQGTQVTVSS", "polyreactivity (PSR sort gate)": "low polyreactivity"},
      {"sequence": "QVQLVESGGGLVQAGGSLRLSCAASGRIFGVYAMGWYRQAPGKERELVAAIYSGSSTYYADSVKGRFTISRDNAKNTVYLHMNSLKPEDTAVYYCAAVSRDDNYQDYYYWGQGTQVTVSS", "polyreactivity (PSR sort gate)": "low polyreactivity"},
      {"sequence": "QVQLVESGGGLVQAGGSLRLSCAASGRIFGVYTMGWYRQAPGKERELVAVISRRGGRTYYADSVKGRFTISRDNAKNTVYLQMNSLKPEDTAVYYCARDSTYSSYTSNDYWGQGTQVTVSS", "polyreactivity (PSR sort gate)": "high polyreactivity"},
      {"sequence": "QVQLVESGGGLVQAGGSLRLSCAASGRIFGVYVMGWYRQAPGKEREFVAAITWSGGRTYYADSVKGRFTISRDNAKNTVYLQMNSLKPEDTAVYYCAARRRYEYDYWGQGTQVTVSS", "polyreactivity (PSR sort gate)": "high polyreactivity"},
      {"sequence": "QVQLVESGGGLVQAGGSLRLSCAASGRIFGWYAMGWYRQAPGKERELVAAIRWSGGSTYADSVKGRFTISRDNAKNTVYLQMNSLKPEDTAVYYCAATYGSYRGVRYYWGQGTQVTVSS", "polyreactivity (PSR sort gate)": "high polyreactivity"},
      {"sequence": "QVQLVESGGGLVQAGGSLRLSCAASGRIFGWYAMGWYRQAPGKERELVAAISRSGGSTYYADSVKGRFTISRDNAKNTVYLQMNSLKPEDTAVCYCAAAFSLGMYWGQGTQVTVSS", "polyreactivity (PSR sort gate)": "high polyreactivity"},
      {"sequence": "QVQLVESGGGLVQAGGSLRLSCAASGRIFGWYAMGWYRQAPGKERELVAAISYSGGSTYADSVKGRFTISRDNAKYTVYLQMNSLKPEDTAVYYCAAYSSYYVHRFQHYDYWGQGTQVTVSS", "polyreactivity (PSR sort gate)": "high polyreactivity"},
      {"sequence": "QVQLVESGGGLVQAGGSLRLSCAASGRIFGWYAMGWYRQAPGKERELVAAITSSVGRTYYADSVKGRFTISRDNAKNTVYLQMNSLKPEDTAVYYCAKDLYTYYYFEYDYWGQGTQVTVSS", "polyreactivity (PSR sort gate)": "low polyreactivity"},
      {"sequence": "QVQLVESGGGLVQAGGSLRLSCAASGRIFGWYAMGWYRQAPGKERELVAGISSSSGSTNYADSVKGRFSISRDNAKNTVYLQMNSLKPEDTAVYYCAADGGGTYYSFYYWGQGTQVTVSS", "polyreactivity (PSR sort gate)": "low polyreactivity"},
      {"sequence": "QVQLVESGGGLVQAGGSLRLSCAASGRIFGWYDMGWYRQAPGKERELVAAISYNGARTYYADSVKGRFTISRDNAKNTVYLQMNSLKPEDTAVYYCARRYYSQYDYWGQGTQVTVSS", "polyreactivity (PSR sort gate)": "high polyreactivity"},
      {"sequence": "QVQLVESGGGLVQAGGSLRLSCAASGRIFGYAMGWYRQAPGKERELVAAITSSGGRTYYADSVKGRFTISRDNAKNTVYLQMNSLKPEDTAVYYCAAEYLAVSGYWYDYWGQGTQVTVSS", "polyreactivity (PSR sort gate)": "high polyreactivity"},
      {"sequence": "QVQLVESGGGLVQAGGSLRLSCAASGRIFGYNAMGRYRQAPGKERELVAAISSGASTIYADSVKGRFTISRDNAKNTVYLQMNSLKPEDTAVYYCAKEKVISPYPYSYYKSDYWGQGTQVTVSS", "polyreactivity (PSR sort gate)": "high polyreactivity"},
      {"sequence": "QVQLVESGGGLVQAGGSLRLSCAASGRIFGYNAMGWSRQAPGKERELVAAISYSGGSTYYADSVKGRFTISRDNAKNTVYLQMNSLKPEDTAVYYCAARHPYYYHYDYWGQGTQVTVSS", "polyreactivity (PSR sort gate)": "high polyreactivity"},
      {"sequence": "QVQLVESGGGLVQAGGSLRLSCAASGRIFGYYAMGSYRQAPGKERELVAAITRGGSTNYADSVKGRFTISRDNAKNTVYLQMNSLKPEDTAVYYCNARRYRPRSASYDYWGQGTQVTVSS", "polyreactivity (PSR sort gate)": "high polyreactivity"},
      {"sequence": "QVQLVESGGGLVQAGGSLRLSCAASGRIFGYYAMGWSRQAPGKEWELVAAISSGGRTYYADSVKGRFTISRDNAKNTVYLQMNSLKPEDTAVYYCAARSRVPPAGPRYDYWGLGTQVTVSS", "polyreactivity (PSR sort gate)": "high polyreactivity"},
      {"sequence": "QVQLVESGGGLVQAGGSLRLSCAASGRIFGYYAMGWYRQAPGKERELVAAISDGGSTDYADSVKGRFTISRDNAKNTVYLQMNSLKPEDTAVYYCNADRLYLYNVEYDYWGQGTQVTVSS", "polyreactivity (PSR sort gate)": "low polyreactivity"},
      {"sequence": "QVQLVESGGGLVQAGGSLRLSCAASGRIFGYYAMGWYRQAPGKERELVAAISSNGGSTYYADSVKGRFTISRDNAKNTVYLQMNSLKPEDTAVYYCKVYFYSRHYFYRGDYWGQGTQVTVSS", "polyreactivity (PSR sort gate)": "high polyreactivity"},
      {"sequence": "QVQLVESGGGLVQAGGSLRLSCAASGRIFGYYAMGWYRQAPGKERELVAAISYTGGSTYYADSVKGRFTISRDNAKNTVYLQMNSLKPEDTAVYYCAAKHYKRLDYWGQGTQVTVSS", "polyreactivity (PSR sort gate)": "high polyreactivity"},
      {"sequence": "QVQLVESGGGLVQAGGSLRLSCAASGRIFGYYAMGWYRQAPGKERELVAAITGSGGRTYYADSVKGRFTISRDNAKNTVYLQMNSLKPEDTAVYYCARQQYRWERVYGYGYCGQGTQVTVSS", "polyreactivity (PSR sort gate)": "high polyreactivity"},
      {"sequence": "QVQLVESGGGLVQAGGSLRLSCAASGRIFGYYAMGWYRQAPGKERELVAAITRNGGSTYYADSVKGRFTISRDNAKNTVYLQMNSLKPEDTAVYYCAATKGGGRGYWGQGTQLTVSS", "polyreactivity (PSR sort gate)": "high polyreactivity"},
      {"sequence": "QVQLVESGGGLVQAGGSLRLSCAASGRIFGYYAMGWYRQAPGKERELVAAITWSGGTYYADSVKGRFTISRDNAKNTVYLQMNSLKPEDTAVYYCAKSVRNGWQSRFGYWGQGTQVTVSS", "polyreactivity (PSR sort gate)": "high polyreactivity"},
      {"sequence": "QVQLVESGGGLVQAGGSLRLSCAASGRIFGYYAMGWYRQAPGKERELVADITESGTSTYYADSVKGRFTISRDNAKNTVYLHMNILKPEDTAVYYCAAGYWWRYALYGYWGQGTQVTVSS", "polyreactivity (PSR sort gate)": "low polyreactivity"},
      {"sequence": "QVQLVESGGGLVQAGGSLRLSCAASGRIFGYYAMGWYRQAPGKERELVAGINSAGSTNYADSVKGRFTISRDNAKNTVYLQMNSLKPEDTAVYYCAARIRLSLRTGYDYWGQGTQVTVSS", "polyreactivity (PSR sort gate)": "high polyreactivity"},
      {"sequence": "QVQLVESGGGLVQAGGSLRLSCAASGRIFGYYAMGWYRQAPGKERELVARISSSGGSTYYADSVKGRFTISRDNAKNTVYLQMNSLKPEDTAVYYCNTASNRYPGWRAEFDYWGQGTQVTVSS", "polyreactivity (PSR sort gate)": "low polyreactivity"},
      {"sequence": "QVQLVESGGGLVQAGGSLRLSCAASGRIFGYYAMGWYRQAPGKERELVATITFGGGSTYYADSVKGRFTISRDNAKNTVYLQMNSLKPEDTAVYFCAADSGYLGIYGDEYSWGQGTQVTVSS", "polyreactivity (PSR sort gate)": "low polyreactivity"},
      {"sequence": "QVQLVESGGGLVQAGGSLRLSCAASGRIFGYYGMGWYRQAPGKERELVAAITDDGDSTYYADSVKGRFTISRDNAKNTVYLQMNSLKPEDTAVYYCNALGYYVNKMDYWGQGTQVTVSS", "polyreactivity (PSR sort gate)": "low polyreactivity"},
      {"sequence": "QVQLVESGGGLVQAGGSLRLSCAASGRIFGYYTMGWYRQAPGKERELVAGITRRGGRTYYADSVKGRFTISRDNAKNTVYLQMNSLKPEDTAVYYCDVRSGVNFYYWGQGTQVTVSS", "polyreactivity (PSR sort gate)": "high polyreactivity"},
      {"sequence": "QVQLVESGGGLVQAGGSLRLSCAASGRIFGYYVMGWYRPAPGKERELVAAIRSSADSTYYADSVKGRFTISRDNAKNTVYLQMNSLKPEDTAVYDCAAQSPAYYTKSYWGQGTQVTVSS", "polyreactivity (PSR sort gate)": "low polyreactivity"}
    ]}
  ]
}
